How the values were obtained:
[1] = molecular target: the molecule itself; assay: single-molecule TIRF fluorescence (Cy3 photobleaching step counting); motors assembled from T4 heads, Cy3-labelled SNAP-gp17 monomer (2-5 uM), 1 mM ATP-gammaS and 120-bp DNA; heads held on a PEG surface by anti-T4 polyclonal antibody; only spots with packaged Cy5-DNA counted; binomial fit of step counts (486 trajectories); room temperature
[2] = molecular target: T1, WT-gp17 (His-tagged, unlabeled wild-type phage T4 gp17) (bacteriophage T4, UniProt P17312 1-610); assay: single-molecule TIRF fluorescence (Cy3 photobleaching step counting); only the inactive SNAP-Q163A-gp17 labelled with Cy3, mixed with unlabeled WT gp17 and assembled on T4 heads; heads held on a PEG surface by anti-T4 antibody; Cy5-DNA and ATP flowed in, DNase I after ~10 min; Cy3 and Cy5 spots colocalised (2405 trajectories); room temperature; details: both partners purified
T1 construct: Large terminase gp17 of bacteriophage T4; also called unlabeled WT gp17; source: E. coli BL21 (DE3) pLysS or codon-plus BL21 (DE3) RIPL, purified (HisTrap, Superdex-200 SEC)

[3] = molecular target: the molecule itself; assay: not stated; assembly of the Q163A mutant into a pentamer; shown only in Supplementary Fig. 3b-g

Binder	stoichiometry N [1]	binding result [2]	stoichiometry N [3]
SNAP-gp17 (SNAP-tagged full-length wild-type phage T4 large terminase gp17, labelled with SNAP-Surface 549) (enzyme, bacteriophage T4, UniProt P17312 1-610, looked up, SNAP-Surface 549 fluorophore (called Cy3 in the paper) on the SNAP-tag, Large terminase gp17 of bacteriophage T4, full-length wild type, amplified from pET15-gp17 and inserted into pET-SNAP; Order on the chain as printed: SNAP-tag, hexa-histidine tag, full-length gp17; Added as a monomer; it assembles into the motor on the T4 head; also called WT gp17; Cy3-labeled gp17; not shown: SNAP-tag, N-terminal, kept) MEQPINVLNDFHPLNEAGKILIKHPSLAERKDEDGIHWIKSQWDGKWYPEKFSDYLRLHKIVKIPNNSDKPELFQTYKDKNNKRSRYMGLPNLKRANIKTQWTREMVEEWKKCRDDIVYFAETYCAITHIDYGVIKVQLRDYQRDMLKIMSSKRMTVCNLSRQLGKTTVVAIFLAHFVCFNKDKAVGILAHKGSMSAEVLDRTKQAIELLPDFLQPGIVEWNKGSIELDNGSSIGAYASSPDAVRGNSFAMIYIDECAFIPNFHDSWLAIQPVISSGRRSKIIITTTPNGLNHFYDIWTAAVEGKSGFEPYTAIWNSVKERLYNDEDIFDDGWQWSIQTINGSSLAQFRQEHTAAFEGTSGTLISGMKLAVMDFIEVTPDDHGFHQFKKPEPDRKYIATLDCSEGRGQDYHALHIIDVTDDVWEQVGVLHSNTISHLILPDIVMRYLVEYNECPVYIELNSTGVSVAKSLYMDLEYEGVICDSYTDLGMKQTKRTKAVGCSTLKDLIEKDKLIIHHRATIQEFRTFSEKGVSWAAEEGYHDDLVMSLVIFGWLSTQSKFIDYADKDDMRLASEVFSKELQDMSDDYAPVIFVDSVHSAEYVPVSHGMSMV	5	–	–
SNAP-Q163A-gp17 (ATPase-defective Walker A P-loop mutant of SNAP-tagged gp17, labelled with SNAP-Surface 549) (enzyme, bacteriophage T4, UniProt P17312 1-610, looked up, SNAP-Surface 549 fluorophore (called Cy3 in the paper) on the SNAP-tag, Large terminase gp17 of bacteriophage T4, full length, with Q163A; made by overlap PCR with the SNAP-gp17 construct as template; also called Q163A mutant; not shown: SNAP-tag, N-terminal, kept) MEQPINVLNDFHPLNEAGKILIKHPSLAERKDEDGIHWIKSQWDGKWYPEKFSDYLRLHKIVKIPNNSDKPELFQTYKDKNNKRSRYMGLPNLKRANIKTQWTREMVEEWKKCRDDIVYFAETYCAITHIDYGVIKVQLRDYQRDMLKIMSSKRMTVCNLSRALGKTTVVAIFLAHFVCFNKDKAVGILAHKGSMSAEVLDRTKQAIELLPDFLQPGIVEWNKGSIELDNGSSIGAYASSPDAVRGNSFAMIYIDECAFIPNFHDSWLAIQPVISSGRRSKIIITTTPNGLNHFYDIWTAAVEGKSGFEPYTAIWNSVKERLYNDEDIFDDGWQWSIQTINGSSLAQFRQEHTAAFEGTSGTLISGMKLAVMDFIEVTPDDHGFHQFKKPEPDRKYIATLDCSEGRGQDYHALHIIDVTDDVWEQVGVLHSNTISHLILPDIVMRYLVEYNECPVYIELNSTGVSVAKSLYMDLEYEGVICDSYTDLGMKQTKRTKAVGCSTLKDLIEKDKLIIHHRATIQEFRTFSEKGVSWAAEEGYHDDLVMSLVIFGWLSTQSKFIDYADKDDMRLASEVFSKELQDMSDDYAPVIFVDSVHSAEYVPVSHGMSMV	–	binds	5

— PMC8589836, “A viral genome packaging ring-ATPase is a flexibly coordinated pentamer” (Nature Communications, 2021)
